Test results from the nanobody polyreactivity screen of Harvey et al. (2022).

Assay: yeast display, Sf9 membrane polyspecificity reagent, FACS + sequencing; frameworks hold sequencing errors
In short: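 Galactose-induced (36–48 hours) yeast carrying a synthetic nanobody display library were exposed to 10% biotinylated, detergent-solubilized Sf9 membrane reagent at 4 °C for 1 hour. FACS followed streptavidin microbead enrichment, using low and high (top ~1%) gates for expression (anti-HA) and reagent binding (streptavidin). Colony PCR, MiSeq 2 × 250 sequencing and CDR-length filtering followed. Labels for polyreactivity reflect the gate of origin.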

Row | Sequence | polyreactivity (PSR sort gate)
1 | QVQLVESVGGLVQAGGSLRLSCASSGYIFAYYGMGWYRQAPGNERELVAAISWSGGSTDYADSVKGRFTISRDNAKNTGYLQMNRLKPEDTAVYYCATRKYADRESDYWGQVTQVTVSS | high polyreactivity
2 | QVQLVESGGGLVQAGGRLRLSCAASGTTFWNNAMGWYRQAPGKERELVPGISRSGGSTYYADSVKGRFTISRDNAKNTVYLQMNSLKPEDTAVYYCNKVNYAKRNYWGQGTQVTVSS | low polyreactivity
3 | QGQLVESGGGLVQAGGSLRLSCAASGSIFPYNDMGWYRQAPRKERELFAAINSDGSTDYADSVKGRFTISRDNAKNTVYLLMKSLKPEDTAVYDCNGDYVATFLSPPTSVSYGYWGQVTQVTVSS | low polyreactivity
4 | QVQLVESGGGLVQAGGSLRLSCAASGFTFVWNARGWYRQAPGKERELVAVISYSGGSTYYADSVKGRFTISRDNAKNTVYLQMNSLKPEETAVDYCAAEFVTYYSSSKRAYYYWGQGTLVTVSS | high polyreactivity
5 | QVQLEESGGGLVQAGGSLRLSCAASGFNFAAYTMGWNRQAPGKEREWVAGISKRGGTTYYADSVKGRFTISRDNAKNTVYLQMNSLKPEDTAVYYCAASRYVTTSRYQYNHWGQGTQVTVSS | high polyreactivity
6 | QVQLVESGGGLVQAGGSLRLSCAASGSTFVGYAMGCYRQAPGKERELVATISWIGVRTYYADSVKGRFTISRDNAKNTVYLQMNSLKPEDTAVYYCANRKGYSARSFWRLYEPENDYWGQGTQVNVSS | high polyreactivity
7 | QVQLLETGGGLVQAGASLRLSCAASGSTFEDNAMGWYRQAPGKERELVAAITSGGNTYYADSVKGRFTIARDNAKNTVYLPMNSLKPEDTAVYYCNAVPFYYVFDYWGQGTQVTVSS | low polyreactivity
8 | QVQLVESGGGLVQAGGSLRLSCAASGITFVNYAMGWYRQAPGKERELVAAITSGGNTYYADSVKGRFTISRDNAKNTVYLQMNSLKPEDTAVYYCAAKWFYGKPYRGYYYWGQGTQVTVSS | high polyreactivity
9 | QVQLVESGGGLVPAGGSLRLRCAASGSTFPYYAMGGYRQAPGKERELVAAIRRSGANTYYADSVKGRFTISRDNAKNTVYLQMNSLKPEDTAVYYCNVEYVISWWLYDYWGQGTQVTVSS | low polyreactivity
10 | QVQLVESGGGLVQAGGSLRLSCAASGRTFGPYTMGWYRQAPGKEREFVAAINSSGSRTYYADSVKGRFTISRDNAKNTVYLQMNSLKPEDTAVYYCAAEAKWYYSWSYPYEGDYWGQGSQVTVSS | low polyreactivity
11 | QVQLVESGGGLVQAGGSLRLSCAASGSTFAYYAMGWYRQAPGKERELVAAISWRGGSTYYADSVKGRFTISRDNAKNTVYLLMNILKPEVTAVYYCAAARDRWGNYWGQGTQVTVSS | high polyreactivity
12 | QDQLVESGRGLVQAGGSLRLSCAASASIFTKYTMVWYRQAPGKERELVAAITLRGTSTYYADSVKGRFTISRDNAKKTVYLQKNSLKPEDTAVYYCNILYSWVVAYDYWGQGTQVTLSS | high polyreactivity
13 | QVHLVESGGGLVQAGGSLRLSCAASGYTFYANAMGWYRQAPGKEREFVASITWSGGSTYYADSVKGRFTISRDNAKNTVYLQKNSLKPEDTAVYYCAAESWFKYDYWGQGTQVTVSS | low polyreactivity
14 | QVQLVESGGGLVQAGGSLRLSCASSGFTFRGYAIGWYRQAPGKERELVAAITGGGSTNYADSVKGRFTISRDNAKNTVYLQMNSLKPEDTAVYYCAADASWALFAWAHYDYWGEGTQVTVSS | low polyreactivity
15 | QVQLVESGGGLVQAGGSLRLSCAASGRIFDYYAMGWYRQAPGKERELVAAITSSTGSTYYADSVKGRFTISRDNAKNTVYLQMNSLKPEDTAVYYCAAERTYLDRGFDYWGQGTQVTVSS | low polyreactivity
16 | QVQIVESGGGLVQAGGSLRLSCAASGRTFRVNAMGWYRQAPGKERELVAAISSSGGSTYYADSVKGRFTISRDNAKNTVYLQMNSLKPEDTAVYYCAAVVGGYRYDYLGQGTQVTVSS | high polyreactivity
17 | QVQLVESGGGLVQAGGSLRLSCAASGLYAMGWYRQAPGKERELVADINSSGGSITNYADSVKGRFTISRDNAKNTVYLQMNSLKPEDTAVYYCAAPALGNYFYGYDYWGQGTQVTVSS | low polyreactivity
18 | QVQLVESGGGLVQAGGSLSLMCAASGRTLRSYAMGWYRQAPGKEMEFVASISRSGGSTYYADSVKGRFTISRDNAKNTVYLQMNSLKPEDTAVYYCAAGVRYPYRYYYWGQGTQVTVSS | high polyreactivity
19 | QVHLVDSGGGLVQAGGSLRLSCAASGRTFYYYAMGWYRQAHGKERELVATISRTGTTNYADSVKGRFTISRDNAKNTVYLQMNSLKPEDTAVYYCAAERATPWPKNDYWGQGTQVTVSS | high polyreactivity
20 | QVQLVESGGGLVQAGGSLRLSCAASGRIFGIYTMGWYRQAPGKERELVAAISRSGGSTYYADSVKGRFTISRDNAKNTVYLQMNSLKPEDTAVYYCAAVPYRFPGYGFDSWGQGTQVTVSS | high polyreactivity
21 | QVQLVESAGGLVQAGGSLRLSCAASGYTFPFYTMGWYRQAPGKERELVAAITDTGGGTYYADSVKGRFTISRDNAKNTVYLQMNSLNPEDTAVYYCAKPTSYRGYYSWGQGTQVTVSS | high polyreactivity
